We go through 2 molecules from patent publication US20240352070A1 (ECOLE POLYTECHNIQUE FEDERALE DE LAUSANNE EPFL, published 2024).

Experiment [1] addresses purified cathepsin B (CTSB), purchased from RndSystems (UniProt P07858 80-333). Briefly: cell-based or functional assay.
Experiment [2] addresses human cathepsin S wild-type, amino acids 17 to 331, C-terminal His-tag (CTSS-His) (human, UniProt P25774 115-331). Briefly: cell-based or functional assay.

Square brackets hold non-standard residues; d marks the D form. Ends that are not written are not given here. Michael acceptor = not defined here

human cathepsin S wild-type, amino acids 17 to 331, C-terminal His-tag (CTSS-His), sequence (P25774 115-331 limits assumed, form in doubt): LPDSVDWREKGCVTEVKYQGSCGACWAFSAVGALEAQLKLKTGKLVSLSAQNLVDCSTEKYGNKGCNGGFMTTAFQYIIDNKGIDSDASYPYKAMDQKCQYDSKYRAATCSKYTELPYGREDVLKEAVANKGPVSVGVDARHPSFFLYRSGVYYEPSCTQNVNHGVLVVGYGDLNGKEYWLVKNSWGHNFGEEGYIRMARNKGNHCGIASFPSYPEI

On to KRRY[Michael acceptor]WMW (not fully specified; reading uncertain) [Non-natural peptide inhibitor D5, KRRY(Y)WMW], for which the “IC50, CTSB activity, FRET assay dose-response” value in experiment [1] worked out at 61.9 nM. In addition, the “IC50, CTSS activity, FRET assay dose-response” value in experiment [2] is 86600 nM.

In the case of KHRM[Michael acceptor]VMW (not fully specified; reading uncertain) [Non-natural peptide inhibitor C10, KHRM(Y)VMW], the “IC50, CTSS activity, FRET assay dose-response” value in experiment [2] was found to be 49.3 nM.
